Legend:
Assay in all cases: SPR, mAb captured, construct as analyte
[1] = target: T1, PDGFR-beta extracellular domain construct D1-D3 (human)
T1 construct: also called D1-3
T1 chain: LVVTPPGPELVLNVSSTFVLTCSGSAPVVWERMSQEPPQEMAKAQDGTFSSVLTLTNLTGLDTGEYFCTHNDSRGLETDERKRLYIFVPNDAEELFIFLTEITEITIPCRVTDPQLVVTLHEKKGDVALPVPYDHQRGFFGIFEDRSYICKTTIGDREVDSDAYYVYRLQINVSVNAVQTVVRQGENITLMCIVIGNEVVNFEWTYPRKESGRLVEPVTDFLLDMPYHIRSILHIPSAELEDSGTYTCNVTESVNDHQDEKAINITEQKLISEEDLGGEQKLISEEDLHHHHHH
Method: (§1) Four different anti-PDGFR-beta antibodies were tested for binding to the various constructs by surface plasmon resonance (Biacore). Briefly, 150-200 RU's of anti-PDGFR beta antibody was captured via an anti-human Fc CM5 chip. Next, the individual domain constructs, or full-length PDGFR beta, was applied over the antibody-bound surface at a concentration of 50nM. The ability of the various antibodies to bind to the various domain constructs was measured. (−)=No binding observed; (+)=Binding observed; ND=Not determined.

[2] = target: T2, PDGFR-beta extracellular domain construct D1-D2 (human)
T2 construct: also called D1-2
T2 chain: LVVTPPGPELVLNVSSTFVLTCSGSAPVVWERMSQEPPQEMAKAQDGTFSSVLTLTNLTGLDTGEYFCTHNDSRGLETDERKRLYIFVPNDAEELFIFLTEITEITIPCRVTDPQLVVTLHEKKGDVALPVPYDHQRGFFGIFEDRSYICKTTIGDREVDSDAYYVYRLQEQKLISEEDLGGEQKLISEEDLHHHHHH
Method: as §1

[3] = target: T3, PDGFR-beta extracellular domain construct D1-D4 (human)
T3 construct: also called D1-4
T3 chain: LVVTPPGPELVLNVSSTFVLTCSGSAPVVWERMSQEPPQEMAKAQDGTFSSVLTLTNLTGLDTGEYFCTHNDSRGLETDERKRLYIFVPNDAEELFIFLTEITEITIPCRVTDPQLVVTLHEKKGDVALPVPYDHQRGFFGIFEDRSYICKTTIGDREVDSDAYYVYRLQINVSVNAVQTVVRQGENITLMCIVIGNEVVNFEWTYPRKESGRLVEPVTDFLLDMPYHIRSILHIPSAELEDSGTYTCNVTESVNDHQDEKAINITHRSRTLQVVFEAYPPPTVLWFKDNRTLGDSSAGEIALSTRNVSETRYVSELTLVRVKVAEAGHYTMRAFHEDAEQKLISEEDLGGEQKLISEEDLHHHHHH
Method: as §1

Measured: binding result

B1: H4H3099S (antibody, human IgG4, V domains shown)
VH: QITLKESGPTLVKPTQTLTLTCTFSGFSLTTTGVGVGWIRQPPGKALEWLALIYWNDLKRYSPSLKNRLTITKDTSRHQVVLTMTNMDPMDTATYYCAHRPLYYGSGSGWFDPWGPGTTVTVSS
VL: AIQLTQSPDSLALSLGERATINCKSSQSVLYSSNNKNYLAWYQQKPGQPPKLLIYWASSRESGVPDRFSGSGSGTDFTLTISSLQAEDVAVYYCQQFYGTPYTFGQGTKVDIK
notes: human IgG4 Fc (H4H prefix)
no binding (tested: 50nM): [1] | [2] | [3]

B2: H4H3305N (antibody, human IgG4, V domains shown)
VH: QLQLQESGPGLVKPSETLSLTCIVSGGSISSSSYYWGWIRQPPGKGLEWIGSLYYSGITFYNPSLKSRVTISVDTSKNQFSLTLTSVTAADTAVFYCARHRVMASSPFDHWGQGTLVTVSS
VL: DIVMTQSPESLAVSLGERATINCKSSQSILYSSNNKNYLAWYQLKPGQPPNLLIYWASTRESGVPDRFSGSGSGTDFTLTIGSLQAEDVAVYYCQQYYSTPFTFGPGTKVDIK
notes: human IgG4 Fc (H4H prefix)
no binding (tested: 50nM): [1] | [2] | [3]

Source: US20170210813A1 (Regeneron, published 2017)
